Experimental data from US20250297255A1 (ARSENAL BIOSCIENCES, published 2025).

T1: Human Solute Carrier Family 34 Member 2 (SLC34A2) (human, UniProt O95436 1-690)
T1 construct: Endogenous on OVCAR-3 cells; engineered on 786-O cells in the CAR kinetics assay; also called NaPi2b; NPT2B
T1 sequence: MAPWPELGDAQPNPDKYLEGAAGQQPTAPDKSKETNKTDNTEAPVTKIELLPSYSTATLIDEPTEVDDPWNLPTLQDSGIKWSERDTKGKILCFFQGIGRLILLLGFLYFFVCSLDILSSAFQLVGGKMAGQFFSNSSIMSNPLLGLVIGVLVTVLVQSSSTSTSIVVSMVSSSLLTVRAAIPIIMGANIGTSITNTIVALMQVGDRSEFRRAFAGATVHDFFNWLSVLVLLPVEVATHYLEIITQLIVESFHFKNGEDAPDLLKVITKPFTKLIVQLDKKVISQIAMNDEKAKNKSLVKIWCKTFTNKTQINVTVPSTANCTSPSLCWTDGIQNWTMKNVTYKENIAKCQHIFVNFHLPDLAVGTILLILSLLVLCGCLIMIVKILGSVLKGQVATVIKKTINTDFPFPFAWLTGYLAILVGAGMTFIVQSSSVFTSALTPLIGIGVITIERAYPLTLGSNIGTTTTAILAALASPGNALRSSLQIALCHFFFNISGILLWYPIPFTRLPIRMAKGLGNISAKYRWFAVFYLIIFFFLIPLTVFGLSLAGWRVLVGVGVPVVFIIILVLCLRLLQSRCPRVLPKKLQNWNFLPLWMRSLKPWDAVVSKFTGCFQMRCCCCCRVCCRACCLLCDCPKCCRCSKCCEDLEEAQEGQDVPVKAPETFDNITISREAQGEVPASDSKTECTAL

T2: SLC34A2 peptide fragment (peptide 1) (human, biotinylated (site not stated))
T2 construct: ELISA antigen captured on NeutrAvidin plates; also called SLC34A2 peptide immunogen
T2 peptide: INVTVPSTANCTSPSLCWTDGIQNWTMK


Tests used:
[1] = target: T1, Human Solute Carrier Family 34 Member 2 …; test: flow cytometry on OVCAR-3 cells (endogenous human SLC34A2), hIgG1/kappa, 8 five-fold dilutions from 133 nM;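 further: binding read as geometric mean fluorescence intensity, with non-transfected HEK293 cells serving as the negative control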
Text: Antibodies were screened by standard flow cytometry methods for binding to human OVCAR-3 human ovarian cancer cells which endogenously express human SLC34A2. HEK293 cells were used as a non-transfected negative control. […] Stained cells were then resuspended in cold FACS buffer and analyzed by flow cytometry for geometric mean fluorescent intensity (GeoMFI) and total cell counts on an iQue automated flow cytometer.

[2] = target: T2, SLC34A2 peptide fragment (peptide 1); test: ELISA, biotinylated antigen on NeutrAvidin plate, anti-human Fc-HRP
Experimental: Briefly, NeutrAvidin plates were coated at 1 μg/ml overnight, washed and incubated with blocking buffer for at least 1 hr. Biotinylated antigens as well as irrelevant antigens were then added at 1 μg/ml for at least 1 hr at RT, followed by rigorous washing. […] After additional wash steps, 3,3′,5,5′-Tetramethylbenzidine (TMB) substrate was added and optical density read using an appropriate plate reader.

Row | Binder | EC50 [1] [nM] | Max Signal by flow cytometry [1] | binding result [2]
1 | SLC34A2 Ab 10 (antibody, human IgG1, kappa, V domains shown, recombinant hIgG1/kappa) VH: QVQLLESGGGLVQPGASLRLSCAASGFTFSTYAMTWVRQAPGKGLEWVSGINGGGDTTYYADSVKGRFTISRDNSKNTLYLQMNSLRAEDTAVYYCAVRGYTYGYFFDYWGQGTLVTVSS VL: DIQMTQSPSSLSASVGDRVTITCRASQGISNYLAWYQQRPGKVPKLLIYAASTLRSGVPSRFSGSGSGTDFTLTISSLQPEDVATYYCQKYNSAPLTFGGGTKVEIKR | 20 | 218 | –
2 | SLC34A2 Ab 11 (antibody, human IgG1, kappa, V domains shown, recombinant hIgG1/kappa from TAP products in Expi293) VH: QVQLQESGPGLVKPSETLSLTCTVSGGSISSSSYYWGWIRQPPGKGLEWIGSLYYSGSTYYNPSLKSRVTISVDTSKNQFSLKLNSVTAADTAVYYCTRHPRGIAARWGNWFDPWGQGTLVTVSS VL: EIVLTQSPSSLSASVGDRLTITCRASQTISSYLNWYQQKPGKAPKVLIYAASSLQSGVPSRFSGSGSGTDFTLTISSLQPEDFATYYCQQSFIIPYTFGQGTKLEIKR | 6 | 224 | –
3 | SLC34A2 Ab 15 (antibody, human IgG1, kappa, V domains shown, recombinant hIgG1/kappa) VH: QVQLQESGPGLVKPSETLSLTCTVSGGSVSSASYYWSWIRQPPGKGLEYIGYIYYSGSTYYNPSLKSRVTISIDTSKNQFSLNLRSVTAADTAVYYCARYIVGRPGFNWFDPWGQGTLVTVSS VL: DIQMTQSPSSLSASVGDRVTITCRASQSISSYLNWYQQKPGKAPKFLISPASSLQSGVPSRFSGSGSGTDFTLTISSLQPEDFATYYCQQSYSIPWTFGQGTKVEIKR | 8 | 346 | –
4 | SLC34A2 Ab 5 (antibody, human IgG1, kappa, V domains shown, recombinant hIgG1/kappa) VH: QVQLQESGPGLVKPSETLSLTCSVSGGSISSSSYYWGWIRQPPGKGLEWIGSIDYSGSTYYNPSLKSRVTISIDTSKNQFSLRLSSVTAAEKAVYYCARHGRGTIGYFDYWGQGTLVTVSS VL: DIQMTQSPSSLSASVGDRVTITCRASQSISSYLNWYQQKPGKAPKLLIYAASSLLTGVPSRFTGSGSGTDFTLTISSLQPEDFGTYYCQQSYSPPLTFGGGTKVEIKR | 5 | 271 | no binding
5 | SLC34A2 Ab 16 (antibody, human IgG1, kappa, V domains shown, recombinant hIgG1/kappa) VH: QVQLQESGPGLVKPSETLSLTCTVSGDSVSSVSYYWSWIRQPPGKGLEWIGYIWYSGSTYYNPSLKSRVTISIDTSKNQFSLKLRSVTAADTAVYYCARYIVGRPGFNWFDPWGQGTLVTVSS VL: DIQMTQSPSSLSASVGDRVTITCRASQTISSYLNWYQQKPGKAPKLLISPASNLQSGVPSRFSGSGSGTDFTLTISSLQPEDFATYYCQQSYIIPWTFGQGTKVEIKR | 6 | 296 | –
6 | SLC34A2 Ab 8 (antibody, human IgG1, kappa, V domains shown, recombinant hIgG1/kappa from TAP products in Expi293) VH: QVQLQESGPGLVKPSETLSLTCTVSGGSISSRSYYWGWIRQPPGKGPEWIGSIYYSGSTFYNPSLKSRVTISEDTSKSQFSLKVTSVTAADTAVYYCARHPAGYSSSWSAFDIWGQGTMVTVSS VL: EIVLTQSPSSLSASVGDRVTITCRASQSISSYLNWYQLKPGKAPKLLIYAASSLHSGVPSRFSGSGSGTDFTLTISSLQPADFATYYCQQAYISLTFGQGTRLEIKR | 6 | 354 | –
7 | SLC34A2 Ab 9 (antibody, human IgG1, kappa, V domains shown, recombinant hIgG1/kappa) VH: QVQLVESGGGLVQPGRSLRLSCSGSGFTSGDYAVSWVRQAPGKGLEWVGFIRTKPYGETTEYAASVKGRFTISRDDSKSIAYLQMNSLKAEDTAVFYCTFIPVSRFLEWLPWGQGIPVTVSS VL: DIQMTQSPSSLSAFVGDRVTITCRASQDIGNYLAWYQQTPEKVPKLLIYAASTLQSGVPSRFSGSGSGTDFTLTISSLQPEDVATYYCQNYYSVPWTFGQGTKVEIKR | 37 | 281 | –
8 | SLC34A2 Ab 6 (antibody, human IgG1, kappa, V domains shown, recombinant hIgG1/kappa) VH: QVQLLESGGGLVQPGGSLRLSCAASGFTFSSSAMAWVRQAPGKGLEWVSAISSSGDNTYYADSVKGRFTISRDTSKNTLSLQMSSLRAEDTAIYYCAKQGTNWGLYFDYWGQGTLVTVSS VL: DIQMTQSPSSLSASVGDRVTIACRASQVISNYLAWYQQKPGKVPKLLIYVASTLQSGVPSRFSGSGSGTDFTLTISSLQPEDVATYYCQNYNSAPWTFGQGTKLEIKR | 6 | 211 | no binding
